The test system of this data set is COc1cc(C=NN=Cc2cc(OC)c(O)c(OC)c2)cc(OC)c1O. Kind of data set: purified protein. Conditions: standard assay: 50 mM Na2HPO4-KH2PO4 pH 7.5, 100 µM CuSO4, 45 °C, conditions of the Km series not given separately.
Lac15 (uncultured bacterium): the Km is 3.74 ± 0.37 µM and the catalytic constant (kcat) turned out to be 1.39 ± 0.11 s⁻¹.

Regarding “Lac15 (uncultured bacterium; DEL323-332)”, the Km is 6.34 ± 0.19 µM and the kcat turned out to be 1.69 ± 0.13 s⁻¹.

Consider Lac15-His6 (uncultured bacterium), for which the Km stood at 4.53 ± 0.21 µM and the kcat is 1.35 ± 0.09 s⁻¹.

These data come from paper PMC4103834, “Structure-Based Rational Design to Enhance the Solubility and Thermostability of a Bacterial Laccase Lac15” (PLoS ONE, 2014).
